Test [1] addresses human BMP9 recombinant protein (prepared by the method of Example 12 of WO2010/126169; N-terminal His-type hBMP9 complex, vector pLN1V5_hBMP9) (human) (UniProt Q9UK05). The experiment in a line: SPR (BIAcore 2000), antibody captured by anti-mouse IgG on CM5, human BMP9 as analyte, single cycle kinetics. Background: Surface plasmon resonance follows binding to a sensor surface in real time, without labels.

The target of test [2] is T1, human BMP9 recombinant protein (prepared by the method of Example 12 of WO2010/126169); N-terminal His-type … (human, UniProt Q9UK05 23-319; Q9UK05 320-429).
T1 construct: not shown: N-terminal His tag (His6)
T1 sequence 1: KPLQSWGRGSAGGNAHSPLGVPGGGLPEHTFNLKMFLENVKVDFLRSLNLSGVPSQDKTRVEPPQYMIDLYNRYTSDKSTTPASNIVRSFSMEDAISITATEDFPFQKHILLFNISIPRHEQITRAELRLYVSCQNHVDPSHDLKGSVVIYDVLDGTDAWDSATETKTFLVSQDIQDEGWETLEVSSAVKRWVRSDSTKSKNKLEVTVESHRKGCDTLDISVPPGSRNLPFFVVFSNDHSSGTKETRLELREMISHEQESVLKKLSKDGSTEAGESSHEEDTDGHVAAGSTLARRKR
T1 sequence 2: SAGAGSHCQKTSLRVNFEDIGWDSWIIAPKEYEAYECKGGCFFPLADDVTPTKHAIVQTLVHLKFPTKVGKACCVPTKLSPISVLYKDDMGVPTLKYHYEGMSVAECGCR
In words: SPR (BIAcore 2000), ratio of Kd values against the R&D antibody.

Test [3] addresses T2, human mature dimer BMP10 recombinant protein (R&D Systems, Cat#2926-BP) (human, UniProt O95393 317-424).
T2 construct: Bought protein; also called human BMP10
T2 sequence: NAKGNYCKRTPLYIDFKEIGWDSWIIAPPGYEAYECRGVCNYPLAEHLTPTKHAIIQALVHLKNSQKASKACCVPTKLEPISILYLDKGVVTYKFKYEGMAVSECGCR
In words: solid-phase antigen ELISA, biotin-labeled antibody on immobilized BMP10. On the technique in general: ELISA stands for enzyme-linked immunosorbent assay.

Test [4] has as its target T3, human mature dimer BMP9 recombinant protein (R&D Systems, Cat#3209-BP) (human, UniProt Q9UK05 320-429).
T3 sequence: T1 sequence 2
The experiment in a line: cell-based or functional assay.

Test [5] deals with T4, human BMP9/10 chimeric protein C (human, UniProt Q9UK05 23-319; Q9UK05 320-429).
T4 construct: also called BMP9/10 chimeric recombinant protein C; pLN1V5_hBMP9/10C product; not shown: His6 tag
T4 chain 1: T1 sequence 1
T4 chain 2: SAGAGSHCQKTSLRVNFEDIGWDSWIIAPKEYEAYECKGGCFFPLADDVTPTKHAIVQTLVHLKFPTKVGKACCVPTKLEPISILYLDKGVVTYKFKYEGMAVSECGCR
In words: solid-phase antigen ELISA, recombinant 3C7-3-1 antibody 1000 ng/mL on immobilized antigen (3 ug/mL).

Test [6] has as its target T1, human BMP9 recombinant protein …. In words: SPR (BIAcore 2000), antibody captured by anti-mouse IgG on CM5, human BMP9 as analyte, single cycle kinetics.
Test [7] concerns the target T3, human mature dimer BMP9 recombinant …. In words: solid-phase antigen ELISA, biotin-labeled antibody 100 ng/mL on immobilized BMP9.

Positions count from the first letter of the chain named.

Broadly, the Kd is the constant that tells how readily two partners part at equilibrium. As to “R&D antibody (anti-human BMP9 mouse monoclonal antibody, R&D Systems, clone No. 360107)”, the Kd in test [1] came to 0.616 nM.

B1: 3C7-3-1 antibody (antibody, V domains shown)
VH: EVQLQQSGPELVKPGASVKISCKASGNSFTGYYMNWMKQSPEKSLEWIGEINPSTGATTYNQKFKAKATLTVDKSSSTAYMQLKSLTSEDFAVYYCTRRAAYYFDYWGQGTTLTVSS
VL: QIVLTQSPALMSASPGEKVTMTCSASSSVNYMYWYQQKPRSSPKPWIYLTSNLASGVPARFSGSGSGTSYSLTISSMEAEDAATYYCQQWSSNPRTFGGGTKLEIK
notes: Mouse IgG1, kappa; also called recombinant 3C7-3-1 antibody (mouse IgG1, kappa)
In the case of B1, in test [2], the “binding activity, fold of the R&D antibody” value is 23.3 fold. For the same molecule, the binding result was “no binding (tested: 100 ng/mL antibody)” in test [3] and “binds” in test [5]. Besides, the “BMP9-dependent ALK1-derived signal inhibitory activity (luciferase, human ALK1 reporter cells ALK1/p(GCCG)12-Luc/HepG2(38.5), 10 ng/mL BMP9)” value in test [4] is ~0.0625 fold of the R&D antibody. In test [6], the Kd is 0.0264 nM.

B2: 3B7-3-3 antibody (antibody, V domains shown)
VH: EVQLQQSRPELVKPGASVKISCKASDYSFTDYYMNWVKQSPDKSLEWIGEISPSSGGTTYNQKFKAKATLTVDKSSSTAYMQLKSLTSEDSAVYYCATRGAFYFDYWGQGTALTVSS
VL: B1 VL with S14F, N30S, A59T, Y86F
notes: Mouse monoclonal antibody from a hybridoma (BMP9 KO mouse); also called anti-human BMP9 monoclonal antibody 3B7-3-3
For the molecule B2, the binding result is “binds” in test [7] and “no binding (tested: 100 ng/mL antibody)” in test [3].
